7 molecules from patent US20200121803A1 (published 2020) can be followed below.

In assay [1] the target is T1, human CD98 on the cell surface (human).
T1 chain: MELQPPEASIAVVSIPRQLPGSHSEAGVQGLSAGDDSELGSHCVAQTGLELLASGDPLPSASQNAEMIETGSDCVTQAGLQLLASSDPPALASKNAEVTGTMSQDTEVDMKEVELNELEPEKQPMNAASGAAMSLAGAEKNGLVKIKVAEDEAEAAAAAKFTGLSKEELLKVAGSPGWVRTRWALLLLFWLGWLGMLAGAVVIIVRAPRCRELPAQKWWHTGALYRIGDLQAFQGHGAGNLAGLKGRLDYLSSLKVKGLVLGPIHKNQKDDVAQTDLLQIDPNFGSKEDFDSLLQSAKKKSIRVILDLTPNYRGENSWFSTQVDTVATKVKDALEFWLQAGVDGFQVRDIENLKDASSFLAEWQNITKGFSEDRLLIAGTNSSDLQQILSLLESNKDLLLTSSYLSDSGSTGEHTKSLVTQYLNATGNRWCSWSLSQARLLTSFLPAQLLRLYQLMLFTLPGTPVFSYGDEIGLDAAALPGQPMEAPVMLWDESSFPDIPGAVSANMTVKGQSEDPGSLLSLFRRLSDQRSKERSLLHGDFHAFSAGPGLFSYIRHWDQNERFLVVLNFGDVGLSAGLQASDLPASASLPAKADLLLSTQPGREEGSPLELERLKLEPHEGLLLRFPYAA
The assay is described as follows: cell-based or functional assay.

For assay [2], the target named is T2, human CD98 on human cancer cell lines (EBC-1, H2170, Molt-4) (human).
T2 chain: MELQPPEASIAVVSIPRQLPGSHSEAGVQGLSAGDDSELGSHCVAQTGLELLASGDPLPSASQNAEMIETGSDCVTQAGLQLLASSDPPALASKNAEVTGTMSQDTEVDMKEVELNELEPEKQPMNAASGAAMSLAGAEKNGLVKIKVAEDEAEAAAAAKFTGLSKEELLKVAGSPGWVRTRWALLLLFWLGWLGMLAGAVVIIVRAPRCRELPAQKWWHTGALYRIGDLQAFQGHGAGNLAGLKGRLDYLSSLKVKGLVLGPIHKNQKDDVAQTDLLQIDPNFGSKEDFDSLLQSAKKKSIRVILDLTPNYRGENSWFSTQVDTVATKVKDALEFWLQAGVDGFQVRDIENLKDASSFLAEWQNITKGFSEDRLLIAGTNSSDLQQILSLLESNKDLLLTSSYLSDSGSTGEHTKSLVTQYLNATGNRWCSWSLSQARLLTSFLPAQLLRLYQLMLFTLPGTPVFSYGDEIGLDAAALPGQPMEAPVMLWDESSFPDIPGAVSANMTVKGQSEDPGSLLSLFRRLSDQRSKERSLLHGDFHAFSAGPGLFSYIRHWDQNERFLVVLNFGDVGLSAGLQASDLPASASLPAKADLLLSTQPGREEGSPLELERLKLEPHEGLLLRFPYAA
The assay is described as follows: cell-based or functional assay.

B1: ChAb13-CZ (other)
VH: QVQLKESGPGLVQPSQTLSLTCTVSGFSLSSYGVIWVRQPPGKGLEWMGIIWANGNTNYNSALKSRLSISRDTSKSQVYLKMNSLQTEDTATYYCARHYYDGTHYYGYFDYWGQGVMVTVSS
VL: DTVMTQTPSSQAVSAGEKVTMSCKSSQSLLYSENKKKYLAWYQQKPGQSPKLLIYWASTRESGVPDRFIGSGSGTDFTLTISSVQAEDLAVYYCQQYYNFPYTFGAGTKLELK
modifications: synthon CZ on reduced interchain Cys of the constant regions (sites not numbered)
B1: in assay [1], the “ADC potency, IC50 (nM), H146 (SCLC) growth inhibition” value is 0.115 nM; the “ADC potency, IC50 (nM), H2170 (NSCLC) growth inhibition” value came out at 0.321 nM; the “ADC potency, IC50 (nM), MOLT4 (leukemia) growth inhibition” value is 0.052 nM.

B2: ChAb3-CZ-DAR2 (anti-CD98 chimeric chAb3 conjugated to Bcl-xL inhibitor synthon CZ, HIC-purified DAR2 species) (antibody, human IgG1, V domains shown)
VH: EVKLVESGGGLVQPGNSLRLSCATSGFTFIDYYMSWVRQSPGKALEWLGFIRNKANGYTTEYSASVKGRFTISRDNSQSILYLQMDTLRAEDSATYYCTRDRPAWFVYWGQGTLVTVSA
VL: DIVMSQSPSSLAVSVGEKVTMSCKSSQSLLYSSNQKNYLAWYQQKPGQSPKLLIYWASTRESGVPDRFTGSGSGTDFTLTFSSVRAEDLAVYYCQQYYSYPYTFGGGTKLEIK
modifications: Bcl-xL inhibitor synthon CZ conjugated to cysteines of the TCEP-reduced antibody (Method H); positions not given; Bcl-xL inhibitor synthon CZ conjugated to cysteines of the TCEP-reduced antibody (Method H); DAR 2.0 by MS; positions not given
B2: in assay [2], the “ADC potency, IC50 (nM), EBC (NSCLC), growth inhibition (CellTiter-Glo)” value was 271 nM; the “ADC potency, IC50 (nM), H2170 (NSCLC), growth inhibition (CellTiter-Glo)” value came to 0.273 nM; the “ADC potency, IC50 (nM), MOLT4 (leukemia), growth inhibition (CellTiter-Glo)” value turned out to be 0.046 nM.

B3: ChAb3-CZ-DAR4 (anti-CD98 chimeric chAb3 conjugated to Bcl-xL inhibitor synthon CZ, HIC-purified DAR4 species) (antibody, human IgG1, V domains shown)
VH: EVKLVESGGGLVQPGNSLRLSCATSGFTFIDYYMSWVRQSPGKALEWLGFIRNKANGYTTEYSASVKGRFTISRDNSQSILYLQMDTLRAEDSATYYCTRDRPAWFVYWGQGTLVTVSA
VL: DIVMSQSPSSLAVSVGEKVTMSCKSSQSLLYSSNQKNYLAWYQQKPGQSPKLLIYWASTRESGVPDRFTGSGSGTDFTLTFSSVRAEDLAVYYCQQYYSYPYTFGGGTKLEIK
modifications: Bcl-xL inhibitor synthon CZ conjugated to cysteines of the TCEP-reduced antibody (Method H); positions not given; Bcl-xL inhibitor synthon CZ conjugated to cysteines of the TCEP-reduced antibody (Method H); DAR 4.0 by MS; positions not given
Consider B3, for which, in assay [2], the “ADC potency, IC50 (nM), EBC (NSCLC), growth inhibition (CellTiter-Glo)” value was 10.4 nM; the “ADC potency, IC50 (nM), H2170 (NSCLC), growth inhibition (CellTiter-Glo)” value came to 0.225 nM; the “ADC potency, IC50 (nM), MOLT4 (leukemia), growth inhibition (CellTiter-Glo)” value is 0.021 nM.

B4: ChAb3-CZ-Broad DAR (anti-CD98 chimeric chAb3 conjugated to Bcl-xL inhibitor synthon CZ, unfractionated, DAR 4.1) (antibody, human IgG1, V domains shown)
VH: EVKLVESGGGLVQPGNSLRLSCATSGFTFIDYYMSWVRQSPGKALEWLGFIRNKANGYTTEYSASVKGRFTISRDNSQSILYLQMDTLRAEDSATYYCTRDRPAWFVYWGQGTLVTVSA
VL: DIVMSQSPSSLAVSVGEKVTMSCKSSQSLLYSSNQKNYLAWYQQKPGQSPKLLIYWASTRESGVPDRFTGSGSGTDFTLTFSSVRAEDLAVYYCQQYYSYPYTFGGGTKLEIK
modifications: Bcl-xL inhibitor synthon CZ conjugated to cysteines of the TCEP-reduced antibody (Method A); positions not given; Bcl-xL inhibitor synthon CZ conjugated to cysteines of the TCEP-reduced antibody (Method A); average DAR 4.1 by MS; positions not given
Take B4: in assay [2], the “ADC potency, IC50 (nM), EBC (NSCLC), growth inhibition (CellTiter-Glo)” value worked out at 7.15 nM; the “ADC potency, IC50 (nM), H2170 (NSCLC), growth inhibition (CellTiter-Glo)” value was found to be 0.15 nM; the “ADC potency, IC50 (nM), MOLT4 (leukemia), growth inhibition (CellTiter-Glo)” value came to 0.034 nM.

B5: ChAb11-CZ (other)
VH: EVQLVESGGGLVQPGRSLKLSCAASGFTFSDYAMAWVRQAPKKGLEWVAGIIYDGRGTYYRDSVKGRFTISRDNAKSTLYLQMDSLRSEDTATYYCARQGDGTYYYWGYFDYWGQGVMVTVSS
VL: DIVMTQSPSSLAVSAGETVTINCRSSQSLLSSGNQKNYLAWYQQKPGQSPKLLIYWASTRQSGVPDRFIGSGSGTDFTLTISSVQAEDLAIYYCQQYYDTPYTFGAGTKLELK
modifications: synthon CZ on reduced interchain Cys of the constant regions (sites not numbered)
In the case of B5, in assay [1], the “ADC potency, IC50 (nM), H146 (SCLC) growth inhibition” value was found to be 0.527 nM; the “ADC potency, IC50 (nM), H2170 (NSCLC) growth inhibition” value came out at 0.195 nM; the “ADC potency, IC50 (nM), MOLT4 (leukemia) growth inhibition” value is 0.199 nM.

B6: ChAb12-CZ (other)
VH: EVQLVESGGGLVQPGRSLKLSCAASGFTFSDYAMAWVRQAPKKGLEWVASIIYDGRGTYYRDSVKGRFTISRDNAKSTLYLQMDSLRSEDTATYYCARQGDGTYYYWGSFDYWGQGVMVTVSS
VL: DIVMTQSPSSLAVSAGETVTINCKSSQSLLSSGNQKNYLAWYQQKPGQSPKLLIYWASTRQSGVPDRFIGSGSGTDFTLTISSVQAEDLAIYHCQQYYDTPYTFGAGTKLELK
modifications: synthon CZ on reduced interchain Cys of the constant regions (sites not numbered)
For the molecule B6, in assay [1], the “ADC potency, IC50 (nM), H146 (SCLC) growth inhibition” value stood at 0.242 nM; the “ADC potency, IC50 (nM), H2170 (NSCLC) growth inhibition” value amounted to 0.118 nM; the “ADC potency, IC50 (nM), MOLT4 (leukemia) growth inhibition” value is 0.034 nM.

B7: ChAb15-CZ (other)
VH: EVQLVESGGGLVQPGRSLKLSCAASGFTFSDYTMAWVRQAPKKGLEWVATIIYDGRGTYYRDSVKGRFTISRDNAKSTLYLQMDSLRSEDTATYYCARQSDGTYYYWGYFDYWGQGVMVTVSS
VL: DIVMTQSPSSLAVSAGETVTINCKSSQSLLFSGNQKNYLAWYQQKPGQSPKLLIYWASTRQSGVPDRFIGSGSGTDFTLTIRSVQAEDLAIYYCQQYYDSPYTFGAGTKLELK
modifications: synthon CZ on reduced interchain Cys of the constant regions (sites not numbered)
On to B7, for which, in assay [1], the “ADC potency, IC50 (nM), H146 (SCLC) growth inhibition” value was 0.194 nM; the “ADC potency, IC50 (nM), H2170 (NSCLC) growth inhibition” value was 0.137 nM; the “ADC potency, IC50 (nM), MOLT4 (leukemia) growth inhibition” value worked out at 0.048 nM.
